Laboratory results as given in patent US20060063223A1 (CHEMOCENTRYX, published 2006).

Legend:
[1] = biological target: T1, human CCR1 (C-C chemokine receptor-1) (human, UniProt P32246 1-355); test: cell-based or functional assay
T1 sequence (looked up): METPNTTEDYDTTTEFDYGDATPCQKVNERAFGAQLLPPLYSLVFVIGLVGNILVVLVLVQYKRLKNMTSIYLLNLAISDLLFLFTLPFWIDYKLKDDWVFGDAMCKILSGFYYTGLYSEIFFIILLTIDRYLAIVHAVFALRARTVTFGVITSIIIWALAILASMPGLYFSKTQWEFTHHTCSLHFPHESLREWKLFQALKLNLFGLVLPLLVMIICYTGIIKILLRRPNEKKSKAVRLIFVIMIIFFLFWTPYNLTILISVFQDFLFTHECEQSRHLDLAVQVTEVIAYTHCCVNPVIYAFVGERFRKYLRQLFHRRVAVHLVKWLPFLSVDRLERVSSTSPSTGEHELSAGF

[2] = biological target: T1, human CCR1 (C-C chemokine receptor-1); test: competition with 125I-MIP-1α on L1.2-CCR1 cells, 3 hr at 4° C., filter binding
Protocol: (§1) Binding assay. Competition binding studies were conducted using monocytes, L1.2-CCR1 or L1.2-FPRL1 cells. […] Reactions were aspirated onto PEI-treated GF/B glass filters using a cell harvester (Packard). Filters were washed twice (25 mM HEPES, 500 mM NaCl, 1 mM CaCl₂, 5 mM MgCl₂, adjusted to pH 7.1). Scintillant (MicroScint-10; 35 μl) was added to the filters and counted in a Packard Topcount scintillation counter. Data were analyzed and plotted using Prism (GraphPad Software, San Diego, Calif.).

[3] = biological target: T1, human CCR1 (C-C chemokine receptor-1); test: competition with 125I-MIP-1α on human monocytes, 3 hr at 4° C., filter binding
Protocol: as §1

[4] = biological target: T1, human CCR1 (C-C chemokine receptor-1); test: competition with 125I-MIP-1α on human monocytes
[5] = biological target: T2, human FPRL1 (formyl peptide receptor like 1) (human, UniProt P25090 1-351); test: cell-based or functional assay
T2 sequence (looked up): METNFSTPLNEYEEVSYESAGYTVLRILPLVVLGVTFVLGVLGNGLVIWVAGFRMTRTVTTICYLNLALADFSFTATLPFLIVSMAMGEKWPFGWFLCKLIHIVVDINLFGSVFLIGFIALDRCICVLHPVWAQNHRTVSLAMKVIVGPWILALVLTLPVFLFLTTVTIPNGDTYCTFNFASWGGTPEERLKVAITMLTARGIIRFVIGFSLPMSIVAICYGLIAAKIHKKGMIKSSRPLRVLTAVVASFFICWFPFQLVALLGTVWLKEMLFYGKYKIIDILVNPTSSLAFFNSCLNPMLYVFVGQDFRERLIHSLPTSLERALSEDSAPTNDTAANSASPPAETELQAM

[6] = biological target: T2, human FPRL1 (formyl peptide receptor …); test: competition with 125I-WKYMVm on human monocytes, filter binding
Protocol: as §1

[7] = biological target: T1, human CCR1 (C-C chemokine receptor-1); test: competition with 125I-MIP-1α on L1.2-CCR1 cells
Protocol: as §1

[8] = biological target: T2, human FPRL1 (formyl peptide receptor …); test: competition with 125I-WKYMVm on L1.2-FPRL1 cells, filter binding
Protocol: as §1

CCL5/RANTES (from UniProt P13501 24-91) (ligand)
EC50, THP-1 cell migration [1]: 0.5 nM
fold decrease in potency in THP-1 cell chemotaxis relative to CCL15Δ24/LKN-1 [1]: 3 fold

B1: CCL15/MIP-1δ digested with chymase (ligand)
chain: AADCCTSYISQSIPCSLMKSYFETSSECSKPGVIFLTKKGRQVCAKPSGPGVQDCMKKLKPYSI
EC50, THP-1 cell chemotaxis [1]: 0.05 nM
fold increase of potency in THP-1 cell migration over full-length CCL15/MIP-1δ [1]: 1000 fold

B2: CCL23/CKβ8 digested with chymase (ligand)
chain: HATSADCCISYTPRSIPCSLLESYFETNSECSKPGVIFLTKKGRRFCANPSDKQVQVCMRMLKLDTRIKTRKN
EC50, THP-1 cell chemotaxis [1]: 0.05 nM
fold decrease of EC50 against undigested CCL23/CKβ8, THP-1 cell chemotaxis [1]: 50 fold

B3: CCL23/CKβ8 digested with PMN sup #1 (ligand)
chain: LLDRFHATSADCCISYTPRSIPCSLLESYFETNSECSKPGVIFLTKKGRRFCANPSDKQVQVCMRMLKLDTRIKTRKN
EC50, THP-1 cell chemotaxis [1]: 0.15 nM

B4: CCL15/MIP-1δ digested with PMN sup #1 (ligand)
chain: VLNSFHFAADCCTSYISQSIPCSLMKSYFETSSECSKPGVIFLTKKGRQVCAKPSGPGVQDCMKKLKPYSI
EC50, THP-1 cell chemotaxis [1]: 0.25 nM

B5: CCL3/MIP-1α (ligand, UniProt P10147 27-92, looked up)
chain: ADTPTACCFSYTSRQIPQNFIADYFETSSQCSKPGVIFLTKRSRQVCADPSEEWVQKYVSDLELSA
modifications: also: 125I-labelled when used as tracer
IC50 [2]: 0.15 nM
EC50, THP-1 cell migration [1]: 0.5 nM
fold decrease in potency in THP-1 cell chemotaxis relative to CCL15Δ24/LKN-1 [1]: ~3 fold
IC50 [3]: 0.3 nM

B6: CCL23α (CCL23/CKβ8, 22-120) (ligand)
chain: RVTKDAETEFMMSKLPLENPVLLDRFHATSADCCISYTPRSIPCSLLESYFETNSECSKPGVIFLTKKGRRFCANPSDKQVQVCMRMLKLDTRIKTRKN
EC50, THP-1 cell chemotaxis [1]: 2.5 nM

B7: CCL23α Δ24 (CCL23Δ24/MPIF-1, 46-120) (ligand)
chain: RFHATSADCCISYTPRSIPCSLLESYFETNSECSKPGVIFLTKKGRRFCANPSDKQVQVCMRMLKLDTRIKTRKN
notes: Recombinant CCL23/CKβ8 lacking the N-terminal 24 residues
fold increase in binding activity over full-length CCL23α [4]: > 10 fold
EC50, THP-1 cell chemotaxis [1]: 0.09 nM

B8: CCL15/MIP-1δ (92aa) (ligand)
chain: QFINDAETELMMSKLPLENPVVLNSFHFAADCCTSYISQSIPCSLMKSYFETSSECSKPGVIFLTKKGRQVCAKPSGPGVQDCMKKLKPYSI
EC50, THP-1 cell chemotaxis [1]: 50 nM

B9: SHAAGtide lacking the N-terminal amino acid (Met) (peptide)
peptide: LWRRKIGPQMTLSHAAG
fold decrease in potency for receptor signaling in L1.2-FPRL1 cells, relative to SHAAGtide [5]: ~10 fold

B10: CCXP5 (peptide)
peptide: MLWRRKIGPQMT
potency for receptor signaling in L1.2-FPRL1 cells, relative to SHAAGtide [5]: 3 fold

B11: SHAAGtide (MLWRRKIGPQMTLSHAAG) (peptide)
peptide: MLWRRKIGPQMTLSHAAG
notes: Synthetic 18-residue peptide; also called CCXP1; SHAAGtide peptide
EC50 in functional assays [5]: 10 to 30 nM
IC50 [6]: 10 nM
binding result [7]: no binding
IC50 [8]: 280 nM

B12: CCL15Δ24/LKN-1 (68aa) (ligand)
chain: SFHFAADCCTSYISQSIPCSLMKSYFETSSECSKPGVIFLTKKGRQVCAKPSGPGVQDCMKKLKPYSI
EC50, THP-1 cell chemotaxis [1]: 0.06 nM

B13: CCL23β Δ24 (ligand)
chain: MLWRRKIGPQMTLSHAAGFHATSADCCISYTPRSIPCSLLESYFETNSECSKPGVIFLTKKGRRFCANPSDKQVQVCMRMLKLDTRIKTRKN
notes: Begins with the 18-residue SHAAGtide insertion; R&D Systems catalog item; also called CCLβΔ24
IC50 [2]: 20 nM
fold increase in binding activity over full-length CCL23β [4]: > 10 fold
IC50 [3]: 4.5 nM
IC50 [6]: 35 nM
IC50 [8]: 210 nM

B14: CCL23β (ligand)
chain: RVTKDAETEFMMSKLPLENPVLLDMLWRRKIGPQMTLSHAAGFHATSADCCISYTPRSIPCSLLESYFETNSECSKPGVIFLTKKGRRFCANPSDKQVQVCMRMLKLDTRIKTRKN
notes: 116-residue alternatively spliced form; recombinant, special order from R&D Systems; also called CKβ8-1
binding result [4]: binds
